We go through one sequence from paper PMC5131957.

The target of this data set is p53CD (core domain) (human) (UniProt P04637). As to the kind of experiment: ELISA. The following applies: EMSA: 5 mM Tris-HCl pH 8, 1 mM MgCl2, 0.01% Triton X-100, 50 mM KCl, on ice or 25 C, 30 min, pBSK/SmaI competitor 5-50 ng; ELISA: 1x PBS, 2 mM MgCl2 ….
Chain of p53CD (core domain) (human) (P04637 94-312): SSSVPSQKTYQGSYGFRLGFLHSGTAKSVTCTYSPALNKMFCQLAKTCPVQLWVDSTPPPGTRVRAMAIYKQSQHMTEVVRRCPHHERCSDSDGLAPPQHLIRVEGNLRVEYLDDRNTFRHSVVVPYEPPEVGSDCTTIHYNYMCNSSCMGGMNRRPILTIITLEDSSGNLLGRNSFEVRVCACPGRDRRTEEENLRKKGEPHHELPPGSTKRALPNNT

The sequence “TTTTTTTTTTTTTTTTTTTTTTTTTTTTTTTTTTTTTTTTTTTTTTTTTT / AAAAAAAAAAAAAAAAAAAAAAAAAAAAAAAAAAAAAAAAAAAAAAAAAA / TTTTTTTTTTTTTTTTTTTTTTTTTTTTTTTTTTTTTTTTTTTTTTTTTT [T.A.T triplex, biotinylated]” returned a Kd of 16.8 nM.
